For three molecules, Kd results are on record in article PMC10213783, “Crystal structures of glycoprotein D of equine alphaherpesviruses reveal potential binding sites to the entry receptor MHC-I” (Frontiers in Microbiology, 2023).

B1: Recombinant soluble glycoprotein D of equine herpesvirus type 1, gD1_(32-349) (domain or fragment)
chain: EKAKRAVRGRQDRPKEFPPPRYNYTILTRYNATALASPFINDQVKNVDLRIVTATRPCEMIALIAKTNIDSILKELAAAQKTYSARLTWFKIMPTCATPIHDVSYMKCNPKLSFAMCDERSDILWQASLITMAAETDDELGLVLAAPAHSASGLYRRVIEIDGRRIYTDFSVTIPSERCPIAFEQNFGNPDRCKTPEQYSRGEVFTRRFLGEFNFPQGEHMTWLKFWFVYDGGNLPVQFYEAQAFARPVPPDNHPGFDSVESEITQNKTDPKPGQADPKPNQPFKWPSIKHLAPRLDEVDEVIEPVTKPPKTSKSNSTF
modifications: N-linked glycosylation (GlcNAc) visible at N53 and N61
B2: Recombinant soluble glycoprotein D of equine herpesvirus type 4, gD4_(32-349) (domain or fragment)
chain: ENYRRVVRGNQNQRPEFPPPRYNFTIVTTYNETSLPSPFINDQVKIVDVRTVAATRPCEMIALIAKTNVDSIIKELDAAHKTYSARLTWFKITPTCATPIHDVVYMKCNPKLLFGMCDERSNILWLNSLITTAAETDDELGLVLASPAHSYSGLYRRVIQIDGRRIYTDFSVTIPSSHCPLSFEQNFGNPDRCKTPEQYSRGEVYTSRFLSEFNYRQGVHLAWVKHWFVQDGGNLPVQFYEAQAFARPVPPDNHPGFDSVESEITQNKTNPKQEQASPKPNPPFKWPSIKQLAPRIDEVDNAKEITTKKPPASNSNSTF
modifications: Insect-cell N-glycosylation; disulfides C87/C209, C126/C223, C138/C147. Entity position = paper number -30. The deposited construct starts at E31 although the text prints 32-349; TEV-His6 removed. / …
B3: C-terminally truncated EHV-4 glycoprotein D, gD4_(36-280) (domain or fragment)
chain: VVRGNQNQRPEFPPPRYNFTIVTTYNETSLPSPFINDQVKIVDVRTVAATRPCEMIALIAKTNVDSIIKELDAAHKTYSARLTWFKITPTCATPIHDVVYMKCNPKLLFGMCDERSNILWLNSLITTAAETDDELGLVLASPAHSYSGLYRRVIQIDGRRIYTDFSVTIPSSHCPLSFEQNFGNPDRCKTPEQYSRGEVYTSRFLSEFNYRQGVHLAWVKHWFVQDGGNLPVQFYEAQAFARPVP
modifications: Insect-cell N-glycosylation; disulfides C87/C209, C126/C223, C138/C147. Entity position = paper number -30. / Peptide is covalently linked to beta2m. The linker sequence is not printed (supplement) …

The assay addresses T1, Recombinant equine MHC-I 3.1 (Eqca-1*00101) with the peptide SDYVKVSNI linked to β2-microglobulin (equine (horse) | horse | ).
T1 chain 1: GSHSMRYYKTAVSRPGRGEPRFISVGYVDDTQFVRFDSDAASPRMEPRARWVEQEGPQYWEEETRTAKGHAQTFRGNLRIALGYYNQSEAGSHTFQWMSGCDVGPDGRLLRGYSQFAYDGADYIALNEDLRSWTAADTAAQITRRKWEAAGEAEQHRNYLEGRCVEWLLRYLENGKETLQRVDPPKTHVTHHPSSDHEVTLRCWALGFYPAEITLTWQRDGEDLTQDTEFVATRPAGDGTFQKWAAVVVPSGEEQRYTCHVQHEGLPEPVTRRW
T1 chain 2: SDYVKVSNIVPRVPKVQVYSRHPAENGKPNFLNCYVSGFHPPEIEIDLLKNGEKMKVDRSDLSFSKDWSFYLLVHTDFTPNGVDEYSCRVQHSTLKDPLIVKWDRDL
Briefly: SPR; recombinant equine MHC-I 3.1 amine-coupled to a polycarboxylate hydrogel chip HC200M; gDs injected in serial dilutions from 0 to about 10 uM, 15 min; 25°C; Biacore J; equilibrium response fitted to a 1:1 model; apparent constants. The note with it: both partners purified. For orientation: SPR reads the build-up and loss of mass on a sensor chip optically.
As for B1, the Kd is 7 µM.

Consider B2, for which the Kd turned out to be 5.8 ± 0.76 µM.

For the molecule B3, the Kd was 6.7 ± 0.75 µM.
